# Patent US20250319154A1
# Biological target: leukocyte function antigen (LFA-1) on THP-1 cells (human) (UniProt P20701)
# Assay: cell-based or functional assay
# Chain of leukocyte function antigen (LFA-1) on THP-1 cells (human) (P20701 26-1170, chain 1 of 2): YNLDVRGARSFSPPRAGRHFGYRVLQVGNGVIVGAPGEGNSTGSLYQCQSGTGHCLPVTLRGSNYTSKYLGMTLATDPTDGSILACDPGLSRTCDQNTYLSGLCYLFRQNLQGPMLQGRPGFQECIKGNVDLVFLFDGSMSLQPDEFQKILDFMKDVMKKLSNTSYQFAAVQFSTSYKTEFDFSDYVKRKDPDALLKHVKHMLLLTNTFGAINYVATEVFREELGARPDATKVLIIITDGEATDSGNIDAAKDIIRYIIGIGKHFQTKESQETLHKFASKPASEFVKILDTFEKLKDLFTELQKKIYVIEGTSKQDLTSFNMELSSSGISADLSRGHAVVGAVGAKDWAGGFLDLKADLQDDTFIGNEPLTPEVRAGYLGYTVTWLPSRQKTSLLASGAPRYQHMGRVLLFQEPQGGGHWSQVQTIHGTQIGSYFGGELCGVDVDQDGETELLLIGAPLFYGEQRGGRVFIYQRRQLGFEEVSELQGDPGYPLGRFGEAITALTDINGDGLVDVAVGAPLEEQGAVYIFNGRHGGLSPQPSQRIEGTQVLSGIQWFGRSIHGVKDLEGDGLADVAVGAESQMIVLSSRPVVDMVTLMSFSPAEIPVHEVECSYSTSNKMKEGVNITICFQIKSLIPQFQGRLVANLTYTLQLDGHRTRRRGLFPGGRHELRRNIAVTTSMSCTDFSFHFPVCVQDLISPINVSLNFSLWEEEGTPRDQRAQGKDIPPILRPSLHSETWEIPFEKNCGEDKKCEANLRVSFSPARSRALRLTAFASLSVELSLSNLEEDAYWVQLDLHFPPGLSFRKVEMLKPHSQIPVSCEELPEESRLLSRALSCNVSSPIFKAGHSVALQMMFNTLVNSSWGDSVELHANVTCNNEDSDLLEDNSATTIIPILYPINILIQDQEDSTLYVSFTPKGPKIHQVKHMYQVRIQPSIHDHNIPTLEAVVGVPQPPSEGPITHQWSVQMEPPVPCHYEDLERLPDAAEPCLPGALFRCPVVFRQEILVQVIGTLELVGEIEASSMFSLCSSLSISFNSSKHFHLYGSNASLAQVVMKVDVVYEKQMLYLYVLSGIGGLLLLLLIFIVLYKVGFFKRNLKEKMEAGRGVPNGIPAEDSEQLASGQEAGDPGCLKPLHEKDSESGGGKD
# Chain of leukocyte function antigen (LFA-1) on THP-1 cells (human) (P05107 23-769, chain 2 of 2, further chain): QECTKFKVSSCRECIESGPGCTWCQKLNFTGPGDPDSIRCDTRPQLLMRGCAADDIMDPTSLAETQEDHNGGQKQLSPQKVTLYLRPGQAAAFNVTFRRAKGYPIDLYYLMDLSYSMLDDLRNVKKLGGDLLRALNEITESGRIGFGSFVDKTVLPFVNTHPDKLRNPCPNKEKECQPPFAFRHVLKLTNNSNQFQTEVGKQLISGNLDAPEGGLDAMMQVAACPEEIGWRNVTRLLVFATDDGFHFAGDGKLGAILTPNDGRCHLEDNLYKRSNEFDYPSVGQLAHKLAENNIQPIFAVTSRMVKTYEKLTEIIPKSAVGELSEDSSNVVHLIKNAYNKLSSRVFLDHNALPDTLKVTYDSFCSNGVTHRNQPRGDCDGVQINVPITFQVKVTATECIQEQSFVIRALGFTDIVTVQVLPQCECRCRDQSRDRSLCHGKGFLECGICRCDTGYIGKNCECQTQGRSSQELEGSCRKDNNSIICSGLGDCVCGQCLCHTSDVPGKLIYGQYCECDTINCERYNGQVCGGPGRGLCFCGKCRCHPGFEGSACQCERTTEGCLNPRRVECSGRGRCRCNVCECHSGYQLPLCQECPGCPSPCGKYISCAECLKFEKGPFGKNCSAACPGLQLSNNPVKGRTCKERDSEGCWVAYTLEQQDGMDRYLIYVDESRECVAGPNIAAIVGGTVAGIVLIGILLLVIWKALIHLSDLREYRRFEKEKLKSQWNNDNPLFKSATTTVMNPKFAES
substance,measurement,value
Leukotoxin (LtxA) polypeptide isolated from Aggregatibacter actinomycetemcomitans (from UniProt P16462 1-1055),"10%-maximal effective concentration (EC10), calculated from an in vitro model using THP-1 cells",0.02 µg/mL
